Literature values, collected in patent publication US20060241020A1, “Protein tyrosine phosphatase inhibitors” (Applied Research Systems ARS Holdings N.V., priority 2002, published 2006).
Square brackets hold non-standard residues; d marks the D form. Ends that are not written are not given here. pY = N[C@@H](Cc1ccc(OP(=O)(O)O)cc1)C(=O)O

Biological target: SHP1 (Homo sapiens, UniProt P29350)
Settings: classification of Wang Peng et al. (68); cited from earlier work

Chain of SHP1 (P29350 whole entry): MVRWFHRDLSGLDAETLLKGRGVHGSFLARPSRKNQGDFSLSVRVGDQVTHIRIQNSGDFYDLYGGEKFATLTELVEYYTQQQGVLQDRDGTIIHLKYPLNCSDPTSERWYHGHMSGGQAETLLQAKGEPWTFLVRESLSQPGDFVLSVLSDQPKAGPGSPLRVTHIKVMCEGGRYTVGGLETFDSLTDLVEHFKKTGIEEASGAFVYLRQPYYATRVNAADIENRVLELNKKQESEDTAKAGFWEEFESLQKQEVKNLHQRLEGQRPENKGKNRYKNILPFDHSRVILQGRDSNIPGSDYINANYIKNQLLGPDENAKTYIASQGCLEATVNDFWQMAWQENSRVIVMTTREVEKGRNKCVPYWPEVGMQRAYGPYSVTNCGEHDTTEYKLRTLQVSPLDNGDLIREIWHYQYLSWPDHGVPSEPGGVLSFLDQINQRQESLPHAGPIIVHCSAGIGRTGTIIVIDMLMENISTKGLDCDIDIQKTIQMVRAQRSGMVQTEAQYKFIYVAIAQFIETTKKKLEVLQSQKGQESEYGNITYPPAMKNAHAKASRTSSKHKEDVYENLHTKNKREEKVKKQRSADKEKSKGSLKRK

Q: With “RNNEFpYA-NH2 (RNNEF[pY]A-NH2; N-terminus assumed; SMILES C[C@H](NC(=O)[C@H](Cc1ccc(OP(=O)(O)O)cc1)NC(=O)[C@H](Cc1ccccc1)NC(=O)[C@H](CCC(=O)O)NC(=O)[C@H](CC(N)=O)NC(=O)[C@H](CC(N)=O)NC(=O)[C@@H](N)CCCNC(=N)N)C(N)=O) [SHP-1 peptide of Wang Peng et al., excluded from the invention]” as the substance, how does the “Substrate class for SHP-1” value read?
A: Its value is “class 3”.
